Reference: patent US20250263472A1 (IGGENIX, published 2025)

Molecular target: T1, Natural Ara h 6 (InBio) (peanut, UniProt Q647G9 22-145)
T1 sequence (looked up): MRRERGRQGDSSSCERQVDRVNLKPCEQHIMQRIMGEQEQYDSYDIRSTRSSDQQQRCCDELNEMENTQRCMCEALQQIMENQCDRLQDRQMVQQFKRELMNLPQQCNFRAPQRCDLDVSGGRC
Assay: told in the description of Combination-1; assay not named

B1: Molecule-1a (bispecific antibody, human IgG4 S228P, kappa)
heavy: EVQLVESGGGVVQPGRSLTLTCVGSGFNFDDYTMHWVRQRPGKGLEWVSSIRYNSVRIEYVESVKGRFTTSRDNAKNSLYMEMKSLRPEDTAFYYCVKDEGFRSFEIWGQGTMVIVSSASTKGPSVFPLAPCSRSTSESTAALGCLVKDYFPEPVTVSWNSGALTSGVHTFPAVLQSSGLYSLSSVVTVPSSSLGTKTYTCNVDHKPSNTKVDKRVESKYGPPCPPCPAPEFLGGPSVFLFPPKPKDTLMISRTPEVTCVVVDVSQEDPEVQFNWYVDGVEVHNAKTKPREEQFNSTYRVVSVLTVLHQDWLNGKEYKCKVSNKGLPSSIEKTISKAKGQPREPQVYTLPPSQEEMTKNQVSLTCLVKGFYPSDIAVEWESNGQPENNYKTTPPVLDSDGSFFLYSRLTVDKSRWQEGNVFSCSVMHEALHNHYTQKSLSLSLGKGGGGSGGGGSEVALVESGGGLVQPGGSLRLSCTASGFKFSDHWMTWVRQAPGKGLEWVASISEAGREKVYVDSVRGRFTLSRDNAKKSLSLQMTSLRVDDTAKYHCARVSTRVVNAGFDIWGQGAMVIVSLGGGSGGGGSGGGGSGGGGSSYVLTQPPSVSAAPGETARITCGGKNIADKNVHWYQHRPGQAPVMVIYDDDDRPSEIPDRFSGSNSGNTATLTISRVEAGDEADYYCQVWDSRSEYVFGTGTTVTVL
light: DIVMTQSPLSLPVTPGEPASISCRSTQSLEHSNGYHYLDWYVQKAGQSPQLLISLGSKRASGVPDRFSGSVSGTDFTLKISRVEAEDVGVYYCMQALQTWTFGQGTKVEIKRTVAAPSVFIFPPSDEQLKSGTASVVCLLNNFYPREAKVQWKVDNALQSGNSQESVTEQDSKDSTYSLSSTLTLSKADYEKHKVYACEVTHQGLSSPVTKSFNRGEC
notes: CMC liabilities removed; also called Molecule-1 (of Combination-1)
**Q.** Does B1 bind?
**A.** Result: binds
